According to US20230365699A1 (published 2023):

T1: human BCMA (B-cell maturation antigen) expressed on cells (human, UniProt Q02223 1-184)
T1 construct: whole, on cells; also called hBCMA; hBCMA/HEK293 cell line
T1 sequence (looked up): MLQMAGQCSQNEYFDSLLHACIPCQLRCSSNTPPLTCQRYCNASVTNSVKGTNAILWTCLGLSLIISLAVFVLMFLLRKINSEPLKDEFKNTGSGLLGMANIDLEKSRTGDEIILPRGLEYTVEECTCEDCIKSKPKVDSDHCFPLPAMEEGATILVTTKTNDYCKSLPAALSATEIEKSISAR


Tests used:
[1] = biological target: human BCMA (B-cell maturation antigen) expressed on cells (human) (UniProt Q02223); assay: flow cytometry, hBCMA-expressing HEK293 cells against parental HEK293 cells
[2] = biological target: T1, human BCMA (B-cell maturation antigen) …; assay: flow cytometry, hBCMA-overexpressing HEK293 compared with OPM2 and RPMI-8226 cells
[3] = biological target: T1, human BCMA (B-cell maturation antigen) …; assay: flow cytometry on hBCMA-expressing HEK293 cells

fold selective binding (hBCMA-expressing HEK293 over parental HEK293) [1] [fold]	Binder	other results
10.8	BCMA-20 scFv (scFv) scFv: EVQLLESGGGLVQPGRSLRLSCAASGFTFDDYAMHWVRQAPGKGLEWVSGISWNSGSIGYADSVKGRFTISRDNAKNSLYLQMNSLRAEDTALYYCAKGGLGITPYYFDYWGQGTLVTVSSGGGGSGGGGSGGGGSQPVLTQPPSASGTPGQRVTISCSGGKTVNWFRQVPGTAPQLLIYSNDQRPSGVPDRFSGSKSGSSASLDISGLQSEDEAYYYCGSWDDSLNAWVFGGETKLTVL	
3.4	BCMA-21 scFv (scFv) scFv: EVQLVESGGGLVKPGGSLKLSCAASGFTFSDYYMSWIRQAPGKGLEWVSYISSSGSTIYYADSVKGRFTISRDNAKNSLYLQMNSLRAEDTAVYYCAKVDGGYTEDYWGQGTLVTVSSGGGGSGGGGSGGGGSQSVLTQPPSASGTPGQRVTISCSGSGSNIGSNDVSWYQQIPGTAPKLLIYWNDQRPSGVPDRFSGSKSGISASLAISGLRSEDEADYYCAAWDDSLNGYVFGTGTKVTVL	
	BCMA-30 scFv (scFv, V domains shown) VH: QVQLVQSGGGLVQPGRSLRLSCAASGFTFGDYAMHWVRQAPGKGLEWVSGISWNSGSIGYADSVKGRFTISRDNAKNSLYLQMNSLRAEDTAVYYCARDLDPDDAFDIWGQGTMVTVSS	binding result [2]: binds
	BCMA-13 scFv (scFv) scFv: QMQLVQYGGGVVQPGRSLRLSCAASGFTFSSYAMHWVRQAPGKGLEWVAVISYDGSNKYYADSVKGRFTISRDNSKNTLYLQMNSLKAEDTAVYYCATLPGRDGYPGAFDYRGQGTLVTVSSGGGGSGGGGSGGGGSQAVLTQPPSASGTPGQRVTISCSGSGSNIGSNDVSWYQQIPGTAPKLLIYWNDQRPSGVPDRFSASKSGTSASLAISGLRSEDEADYYCAAWDDSLGGSWVFGGGTKVTVL	binding result [3]: no binding
2.2	BCMA-18 scFv (scFv) scFv: EVQLLESGGGLVQPGGSLRLSCAASGFTFSSYWMSWHRQAPGKGPEWVAHINQDGSEKYYVDSVKGRFTISRDNAESSLYLQMNSLRAEDTAVYYCARWLAVTNWGQGTLVTVSSGGGGSGGGGSGGGGSQSVLTQPPSASGTPGQRVTISCSGSGSNIGSNDVSWYQQIPGTAPKLLIYWNDQRPSGVPDRFSGSKSGTSASLAISGLRSEDEADYYCAAWDDSLNGWVFGGGTKLTVL	
7.5	BCMA-22 scFv (scFv) scFv: EVQLVESGGGLVKPGGSLRLSCAASGFTFSDYYMSWIRQAPGKGLEWVSYISSSGSTIYYADSVKGRFTISRDNAKNSLYLQMNSLRAEDTAVYYCAKVDGDYTEDYWGQGTLVTVSSGGGGSGGGGSGGGGSQSALTQPASVSGSPGQSITISCTGSSSDVGKYNLVSWYQQPPGKAPKLIIYDVNKRPSGVSNRFSGSKSGNTATLTISGLQGDDEADYYCCSYGGSRSYVFGTGTKVTVL	
